Experimental findings from US20080051562 are described below.

Data set [1] relates to PEG-TMB (TMB conjugated at the C-terminal azido-methionine analog to methyl-PEG-triarylphosphine conjugate 2 by Staudinger ligation).
Data set [2] has as its target recombinant human Thrombomodulin (soluble truncated form that lacks the putative transmembrane and the cytoplasmic domains, approximate weight 68 kD; American Diagnostica Inc.) (UniProt P07204).
For data set [3], the system named is TMB (truncated human thrombomodulin derivative, EGF-like domains 4-6, Met-388-Leu, C-terminal GlyGlyMet linker with azido-methionine analog).
The subject of data set [4] is TMA (truncated human thrombomodulin EGF-like domains 4-6, Met-388-Leu, C-terminal GlyGlyMet linker, expressed as an N-terminal Dsba enzyme fusion with leader sequence).

Sequence of recombinant human Thrombomodulin (soluble truncated form that lacks the putative transmembrane and the cytoplasmic domains, approximate weight 68 kD; American Diagnostica Inc.) (P07204 whole entry, looked up, the tested form may be a part): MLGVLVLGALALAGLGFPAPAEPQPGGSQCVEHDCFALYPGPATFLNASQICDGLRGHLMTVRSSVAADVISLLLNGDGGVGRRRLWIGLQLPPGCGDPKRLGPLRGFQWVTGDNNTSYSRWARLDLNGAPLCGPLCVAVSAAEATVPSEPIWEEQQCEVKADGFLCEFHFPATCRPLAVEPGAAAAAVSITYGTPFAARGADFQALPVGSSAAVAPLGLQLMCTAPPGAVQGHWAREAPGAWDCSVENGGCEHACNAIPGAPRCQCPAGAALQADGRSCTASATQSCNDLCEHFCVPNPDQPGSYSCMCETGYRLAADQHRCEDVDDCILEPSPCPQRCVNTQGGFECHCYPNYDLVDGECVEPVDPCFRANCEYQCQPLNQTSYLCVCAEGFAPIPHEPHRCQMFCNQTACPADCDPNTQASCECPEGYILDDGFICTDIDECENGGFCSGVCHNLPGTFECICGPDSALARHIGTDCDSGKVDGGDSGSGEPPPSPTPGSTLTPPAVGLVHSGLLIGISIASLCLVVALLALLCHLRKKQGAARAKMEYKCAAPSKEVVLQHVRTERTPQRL

Consider “human alpha thrombin (Haematologic Technologies Inc.)”, for which the KM (µM) for protein C activation by the TM-thrombin complex in data set [1] was found to be 1 µM; in data set [2], 0.7 µM; in data set [3] it was 1 µM; in data set [4], 0.9 µM. In addition, the kcat (min^-1) for protein C activation by the TM-thrombin complex in data set [1] came out at 0.2 min⁻¹; in data set [2], 0.14 min⁻¹; in data set [3] it was 0.16 min⁻¹; in data set [4], 0.22 min⁻¹. Besides, the kcat/KM (min^-1 · µM^-1) for protein C activation by the TM-thrombin complex (min^-1 · µM^-1) in data set [1] worked out at 0.2; in data set [2], 0.21; in data set [3], 0.16; in data set [4], 0.26.
